Test results from PMC6294510.
Like-named read-outs stand apart in the source and are kept apart here.

Legend:
ARTD2FL WT [1] = molecular target: T1, ARTD2FL WT (Homo sapiens, UniProt Q9UGN5 1-583); assay: ITC
ARTD2WGR+CAT [2] = molecular target: T2, ARTD2WGR+CAT (Homo sapiens, UniProt Q9UGN5 90-583); assay: SEC-SLS
ARTD2FL WT [3] = molecular target: T1, ARTD2FL WT; assay: SEC-SLS
ARTD2WGR+CAT [4] = molecular target: T2, ARTD2WGR+CAT; assay: SEC-SLS; remark: listed apart in the source
ARTD2WGR [5] = molecular target: T3, ARTD2WGR (Homo sapiens, UniProt Q9UGN5 90-218); assay: X-ray crystallography
T3 sequence (Q9UGN5 90-218): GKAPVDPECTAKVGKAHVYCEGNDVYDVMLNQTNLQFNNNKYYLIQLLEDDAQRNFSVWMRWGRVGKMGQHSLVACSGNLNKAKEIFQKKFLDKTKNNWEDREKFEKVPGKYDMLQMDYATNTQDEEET

ARTD2WGR [6] = molecular target: T3, ARTD2WGR; assay: X-ray crystallography; remark: listed apart in the source
ARTD2FL WT [7] = molecular target: T1, ARTD2FL WT; assay: EMSA
ARTD2FL R153A = ARTD2FL R153A (Homo sapiens, UniProt Q9UGN5 1-583, R153A); assay: SPR
Chain of ARTD2FL R153A (Q9UGN5 whole entry R153A): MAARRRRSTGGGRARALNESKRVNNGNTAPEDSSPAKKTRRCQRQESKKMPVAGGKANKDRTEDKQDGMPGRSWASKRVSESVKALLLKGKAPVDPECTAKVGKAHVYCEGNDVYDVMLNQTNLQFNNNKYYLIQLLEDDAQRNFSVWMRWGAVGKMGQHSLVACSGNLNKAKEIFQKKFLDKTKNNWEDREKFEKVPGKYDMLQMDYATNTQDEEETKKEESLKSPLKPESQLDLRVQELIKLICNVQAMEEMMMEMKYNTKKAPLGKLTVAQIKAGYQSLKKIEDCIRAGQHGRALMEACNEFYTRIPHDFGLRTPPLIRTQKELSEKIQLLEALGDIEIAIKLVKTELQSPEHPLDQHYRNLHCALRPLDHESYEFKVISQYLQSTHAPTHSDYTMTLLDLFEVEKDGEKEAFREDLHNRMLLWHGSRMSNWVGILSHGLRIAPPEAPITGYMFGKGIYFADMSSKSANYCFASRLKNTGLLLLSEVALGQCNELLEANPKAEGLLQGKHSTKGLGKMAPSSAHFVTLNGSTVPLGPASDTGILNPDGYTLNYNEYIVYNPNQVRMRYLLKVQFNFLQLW

ARTD2FL N127A = ARTD2FL N127A (Homo sapiens, UniProt Q9UGN5 1-583, N127A); assay: SPR
Chain of ARTD2FL N127A (Q9UGN5 whole entry N127A): as the sequence (Q9UGN5 whole entry R153A) above, with N127A, A153R counted along it

ARTD2FL K183A = ARTD2FL K183A (Homo sapiens, UniProt Q9UGN5 1-583, K183A); assay: SPR
Chain of ARTD2FL K183A (Q9UGN5 whole entry K183A): as the sequence (Q9UGN5 whole entry R153A) above, with A153R, K183A counted along it

ARTD2FL K179A = ARTD2FL K179A (Homo sapiens, UniProt Q9UGN5 1-583, K179A); assay: SPR
Chain of ARTD2FL K179A (Q9UGN5 whole entry K179A): as the sequence (Q9UGN5 whole entry R153A) above, with A153R, K179A counted along it

ARTD2FL Y201F = ARTD2FL Y201F (Homo sapiens, UniProt Q9UGN5 1-583, Y201F); assay: SPR
Chain of ARTD2FL Y201F (Q9UGN5 whole entry Y201F): as the sequence (Q9UGN5 whole entry R153A) above, with A153R, Y201F counted along it

ARTD2FL W151A = ARTD2FL W151A (Homo sapiens, UniProt Q9UGN5 1-583, W151A); assay: SPR
Chain of ARTD2FL W151A (Q9UGN5 whole entry W151A): as the sequence (Q9UGN5 whole entry R153A) above, with W151A, A153R counted along it

ARTD2WGR [8] = molecular target: T3, ARTD2WGR; assay: X-ray crystallography; remark: listed apart in the source

T1 sequence (Q9UGN5 whole entry): as the sequence (Q9UGN5 whole entry R153A) above, with A153R counted along it
T2 sequence (Q9UGN5 90-583): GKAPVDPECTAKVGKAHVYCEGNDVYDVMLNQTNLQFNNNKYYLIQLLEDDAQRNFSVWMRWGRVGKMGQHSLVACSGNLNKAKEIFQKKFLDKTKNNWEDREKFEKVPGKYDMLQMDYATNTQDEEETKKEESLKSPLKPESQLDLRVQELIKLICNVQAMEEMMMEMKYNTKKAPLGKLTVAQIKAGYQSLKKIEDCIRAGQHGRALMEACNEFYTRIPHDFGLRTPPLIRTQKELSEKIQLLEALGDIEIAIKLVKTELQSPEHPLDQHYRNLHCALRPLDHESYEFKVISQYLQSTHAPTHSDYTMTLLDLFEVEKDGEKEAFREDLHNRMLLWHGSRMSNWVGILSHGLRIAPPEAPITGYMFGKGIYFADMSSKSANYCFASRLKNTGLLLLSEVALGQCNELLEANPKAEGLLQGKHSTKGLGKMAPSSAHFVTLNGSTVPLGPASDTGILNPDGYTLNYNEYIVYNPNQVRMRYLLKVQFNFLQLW

## GGAAGTTCTTTTGAACTTCC (structured_DNA) [DNA-3 blunt hairpin]
ARTD2FL WT [1]
  binding result: binds

## GGGTCTTTTGACCCTCGAGCTTTTGCTCGA (structured_DNA, 5'-phosphate) [DNA-1 nicked hairpin]
ARTD2FL WT [1]
  binding result: binds
ARTD2WGR+CAT [2]
  binding result: binds

B1: DNA-13 (dsDNA)
DNA 1: GACGCAACCCGGAGAACACA
DNA 2: TGTGTTCTCCGGGTTGCGTC
modifications: 5'-phosphate on forward strand
ARTD2FL WT [3]
  binding result: binds
ARTD2WGR+CAT [4]
  binding result: binds

B2: DNA-5 (dsDNA)
DNA 1: GCCTATAGGC
DNA 2: GCCTATAGGC
modifications: 5'-phosphate on both strands
ARTD2WGR [5]
  binding result: binds

B3: DNA-9 (dsDNA)
DNA 1: CGGTCGCCTATAGGC
DNA 2: CGGTCGCCTATAGGC
modifications: 5'-phosphate on both strands
ARTD2WGR [6]
  binding result: binds

## GGAAGTTCTTTTGAACTTCCGCGAAGCTTTTGCTTCGC (structured_DNA, 5'-phosphate) [DNA-2 nicked dumbbell]
ARTD2FL WT [7]
  binding result: binds

B4: DNA-12 (dsDNA)
DNA 1: GCAGCATGGCGGAGTTCACA
DNA 2: TGTGAACTCCGCCATGCTGC
modifications: 5'-phosphate on forward strand
ARTD2FL R153A
  binding result: no binding
ARTD2FL N127A
  binding result: no binding
ARTD2FL K183A
  binding result: no binding
ARTD2FL K179A
  binding result: no binding
ARTD2FL Y201F
  binding result: no binding
ARTD2FL W151A
  binding result: no binding

B5: DNA-6 (dsDNA)
DNA 1: GCCTAGCTACGTAGCTAGGC
DNA 2: GCCTAGCTACGTAGCTAGGC
ARTD2WGR [8]
  binding result: binds
